From patent publication US20240109960A1 (ARGENX, published 2024) come the findings set out here.

Experiment [1] deals with T1, human IL-9 (human, UniProt P15248 19-144). Nature of the experiment: cell-based or functional assay.
Experiment [2] has as its target T1, human IL-9. Nature of the experiment: cell-based or functional assay. This is another data set of the same source.
For experiment [3], the target named is T1, human IL-9. The experiment is described as follows: BLI (Octet Red 96), mAb captured on anti-hIgG Fc sensor, hIL-9 in solution, 1:1 model. Here is the method:
(§1) The BLI experiments on the antagonistic antibodies were performed using an Octet Red 96 machine (Sartorius) in kinetics buffer (PBS, 0.1% (w/v) BSA, 0.02% (v/v) Tween20) at 298 K. Anti-hIgG Fc capture (AHC) or anti-mIgG Fc capture sensors (Sartorius) were functionalized with the IL-9 mAbs. […] Non-functionalized tips were used as negative controls in a double referenced setup. After subtracting the control sensorgrams, the resulting data was fitted with a 1:1 binding model. Data analysis was performed using the Data Analysis software 9.0.0.14 (Sartorius) (Table 6).
A general note: In BLI a coated tip is dipped into the sample, and binding shifts an interference pattern.

The target in experiment [4] is T2, mouse IL-9 (mouse, UniProt P15247 19-144).
T2 construct: Recombinant mouse IL-9 (R&D Systems) in SPR and BLI; baculovirus supernatant in the bioassay; also called mIL-9; mIL9
T2 sequence: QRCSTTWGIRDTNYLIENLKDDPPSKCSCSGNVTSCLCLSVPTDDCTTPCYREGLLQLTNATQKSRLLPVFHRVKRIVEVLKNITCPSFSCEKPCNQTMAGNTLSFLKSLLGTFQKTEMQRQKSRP
The experiment is described as follows: SPR (Biacore 3000), IL-9 immobilised on CM-5 chip, Fab periplasmic extract injected. Here is the method:
(§2) The binding of Fabs (periplasmic extract) to their respective mouse or human targets was determined by surface plasmon resonance (SPR) using a Biacore 3000 apparatus (GE Healthcare). IL-9 was immobilized on a carboxymethyl dextran sensor chip (CM-5) using amine coupling in sodium acetate buffer (GE Healthcare). The Fab-containing periplasmic extracts were loaded with a flow rate of […]. The Fab binding and off-rates were measured over a 90 second period (Table 5). […] Furthermore, the ability of the antibodies to compete for human or mouse IL-9 binding to human or rat IL-9R was tested also in a Biacore 3000. For this assay, human or rat IL-9R was coated at high density on a carboxymethyl dextran sensor chip (CM-5). Then, a premade mixture of periplasmic extract (Fab) and IL-9 was injected.
On the technique in general: In SPR one partner is held on a chip, and binding of the other changes the refractive index at the surface.

Experiment [5] has as its target T1, human IL-9. Described as above. The procedure:
as §2

The target in experiment [6] is T2, mouse IL-9. The experiment is described as follows: cell-based or functional assay.
Experiment [7] has as its target T2, mouse IL-9. Nature of the experiment: BLI (Octet Red 96), mAb captured on anti-mIgG Fc sensor, mIL-9 in solution, 1:1 model. The procedure: as §1
Experiment [8] concerns the target T1, human IL-9. Nature of the experiment: SPR screening of Fab periplasmic extracts. The procedure:
as §2

Numbering of substitutions follows the chain as printed. In names and notes the source's numbering stands.

T1 sequence (P15248 19-144 limits assumed): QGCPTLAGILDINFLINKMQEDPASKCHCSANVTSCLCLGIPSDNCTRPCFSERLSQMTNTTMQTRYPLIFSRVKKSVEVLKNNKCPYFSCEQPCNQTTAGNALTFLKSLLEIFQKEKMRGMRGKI

B1: anti-hIL-9 antibody 7D6 (full IgG) (antibody, V domains shown)
VH: QLQLVESGPGLVKPSQTLSLTCTVSGGSITTGYYAWSWIRQPPGKGLEWMGFIARDGSTSYSPSLKSRTSISRDTSKNQFSLQLSSVTPEDTAVYYCARAGEGRSWYPGYYYGMDYWGKGTLVTVSS
VL: AQAVVTQEPSLSVSPGGTVTLTCGLSSGSVTSSNYPGWYQQTPGQAPRVLIYNTNSRHSGVPSRYSGFISGNKAALTITGAEPEDEADYYCHLHKGSTGVFGGGTHLTVL
notes: also called 9MP7D6
Turning to B1, the “Bioassay IC50 [pM]: inhibition of human IL-9-induced Baf3hIL9RA6 cell proliferation” value (“Bioassay IC50 [pM]: inhibition” below) in the experiment with human IL-9 [1] amounted to 2110 pM. The “IC50, inhibition of human IL-9-induced Baf3hIL9RA6 cell proliferation (hexosaminidase, OD405)” value (“IC50, inhibition” below) in the experiment with human IL-9 [2] was determined as 6.3 nM. The molecule further yielded a Kd in the experiment with human IL-9 [3] of 1.81 nM.

B2: Fab 7D6 (Fab, V domains shown)
VH: B1 VH
VL: B1 VL
notes: it is treated as the same molecule; also called 9MP7D6
With B2, the binding result with mouse IL-9 [4] was “no binding”.

B3: Fab 7A4 (Fab, V domains shown)
VH: B1 VH with Q1E, L2V
VL: B1 VL with G37A, K95E, T108N
notes: Llama-derived Fab (VH-CH1 and VL-CL) from E. coli periplasmic extract; also called 9MP7A4
With B3, the koff in the experiment with human IL-9 [5] stood at 0.00013 s⁻¹. In addition, the binding result with mouse IL-9 [4] is “no binding”.

B4: anti-hIL-9 antibody 6D3 (full IgG) (antibody, V domains shown)
VH: QVQVQESGPGLVKPSQTLSLTCTVSGGPITTRYYAWSWIRQPPGKGLEWMGLIDYDGSVYYSPSLKSRTSISRDTAKNQFSLQLSSVTPEDTAVYYCARVSAATLFLDYWGQGTQVTVSS
VL: LSYELTQPSALSVTLGQTAKITCQGGSLGSSYAHWYQQKPDQAPILVIYDDDSRPSGIPERFSGSSSGGTATLTISGAQAEDEGDYYCQSYDSSANFVFGGGTKLTVL
notes: also called mAb 6D3; 9MP6D3
Turning to B4, the “Bioassay IC50 [pM]: inhibition” value with human IL-9 [1] is 58.4 pM. For the same molecule, in the experiment with human IL-9 [2], the “IC50, inhibition” value came to 0.115 nM. The molecule further displayed a Kd in the experiment with human IL-9 [3] of 0.13 nM.

B5: Fab 6D3 (Fab, V domains shown)
VH: B4 VH
VL: B4 VL
notes: it is treated as the same molecule; also called 9MP6D3
On to B5, for which the binding result with mouse IL-9 [4] was “no binding”.

B6: Fab 6C4 (Fab, V domains shown)
VH: QVQLVESGGGLVQPGGSLRLSCAASGFTFDDYAMSWVRQAPGKGLEWVSAISWNGGSTYHAESMKGRFTISRDNAKNTLYLQMNSLKSEDTAVYYCAKNLYGSSWYEYDYWGQGTQVTVSS
VL: LSYELTQPSAVSTSLGQTARVTCQGDILESYGASWYQQKPGQAPVLVIYGDDSRPSGIPERFSGSSSGGTATLTISGAQAEDEADYYCLSADSSDYNAVFGGGTHLTVL
notes: Llama-derived Fab (VH-CH1 and VL-CL) from E. coli periplasmic extract; also called 9MP6C4
For B6, the koff in the experiment with human IL-9 [5] turned out to be 0.00044 s⁻¹. Further, the binding result in the experiment with mouse IL-9 [4] is “no binding”.

B7: anti-mIL-9 antibody 35D8, new batch (mIgG1-N297A) (antibody, V domains shown)
VH: QVQLVESGPGLVQPSQTLSLTCTVSGGSITTSYYDWSWIRQPPGKGLEWMGAIAYSGNAYYSPSLKSRTSISRDTSKNQFTLQLSSVTPEDTAVYYCAREDHYSDTHGWNDYWGQGTQVTVSS
VL: SSALTQPSAVSVSLGQTARITCQGGSIGNFGATWYQQKPGQAPVLLSLGEHSRPSGIPERFSGSKSGGTATLTISGAQAEDEADYYCQSFDYIGNDHVFGGGTHLTVL
B7: the “Bioassay IC50 [pM]: neutralisation of mouse IL-9 on TS1 cells (hexosaminidase activity)” value with mouse IL-9 [6] is 20.1 pM.

B8: anti-mIL-9 antibody 35D8 (full mIgG2a) (antibody, V domains shown)
VH: B7 VH
VL: B7 VL
notes: the BLI values are placed here; also called mouse IL-9 mAb
As for B8, in the experiment with mouse IL-9 [7], binding was put at a Kd of 0.11 nM, the koff was 0.000159 s⁻¹ and the kon amounted to 1.39e+06 M⁻¹ s⁻¹.

B9: Fab 35D8 (Fab, V domains shown)
VH: B7 VH
VL: B7 VL
notes: it is treated as the same molecule
In the case of B9, the binding result in the experiment with human IL-9 [5] is “no binding”. In the experiment with mouse IL-9 [4], this molecule registered a koff of 0.00047 s⁻¹.

B10: anti-hIL-9 antibody 6E2 (full IgG) (antibody, V domains shown)
VH: QVQLVESGGGLVQPGGSLRLSCAASGFTFSSSAMGWVRQAPGKGLEWVSTIVNSITTTYYADSVKGRFTISTDNAKNTLYLQIDSLKSEDTAVYYCGSLAGPYYDYWGQGTQVTVSS
VL: LSSALTQPSTVSVSLGQTARITCQGGSLGSYDAHWYQQKPGQAPVLVIHDNNSRPSGIPERFTGSRSGETATLTISGAQTEDEADYYCQSYDSTSDALVFGGGTQLTVL
notes: also called mAb 6E2; 9MP6E2
For B10, the “Bioassay IC50 [pM]: inhibition” value in the experiment with human IL-9 [1] was 30.9 pM. Also, the “IC50, inhibition” value with human IL-9 [2] came to 0.0609 nM. Binding in the experiment with human IL-9 [3] was put at a Kd of 0.24 nM.

B11: Fab 6E2 (Fab, V domains shown)
VH: B10 VH
VL: B10 VL
notes: it is treated as the same molecule; also called 9MP6E2
With B11, the binding result in the experiment with mouse IL-9 [4] was “no binding”.

B12: Fab 6F2 (Fab, V domains shown)
VH: EVQLQESGPGLVKPSQTVSLTCTVSGGSITTRYYGWSWIRQPPGKGLEWMGVVYSDGSTSYSPSLESRTSISRDTSKNQFSLQLSFVTPEDTAVYYCARDRAEARLRVGPTGGNDYWGQGTQVTVSS
VL: AQAVVTQEPSLSVSPGGTVTLTCGLSSESVTSSNYPDWYQQTPGQVPRLLIYTTNSRHSGVPSRFSGSISGNKAALTITGAQPEDEADYYCGLYMGSTAVFGGGTKLTVL
notes: Llama-derived Fab (VH-CH1 and VL-CL) from E. coli periplasmic extract; also called 9MP6F2
With B12, the binding result in the experiment with human IL-9 [8] was “binds”.

B13: Fab 8G3 (Fab, V domains shown)
VH: EVQLVESGPGLVKPSQTLSLTCTVSGDSITTSYYGWGWIRQPPGKGLEWMGVIFSDGGTTYSPSLKSRTSISRDTSKSQFSLQLSSVTPEDTAVYYCARVQYYSGSYSYPTHIYDYWSQGTQVTVSS
VL: AQAVVTQEPSLSVSPGGTVTLTCGLSSGSVTTSNYPGWFQQTPGQAPRTLIYSTSSRHSGVPSRFSGSMSGNKAALTITGAQPEDEADYYCALHMGSSTVFGGGTHLTVL
notes: Llama-derived Fab (VH-CH1 and VL-CL) from E. coli periplasmic extract; also called 9MP8G3
Take B13: the binding result with human IL-9 [8] is on record as “binds”.

B14: Fab 8C3 (Fab, V domains shown)
VH: EVQVQESGPGLVKPSQTLSLTCTVSGGSITTSSYGWMWIRQPPGKGLEWMGVIFSDGSTAYNPSLRSRTSISRDTSKNQFSLQLSSVTPEDTAVYYCARSFVRGVVIGELDYGMDYWGKGTLVTVSS
VL: B13 VL
notes: Llama-derived Fab (VH-CH1 and VL-CL) from E. coli periplasmic extract; also called 9MP8C3
B14: the koff with human IL-9 [5] amounted to 0.00067 s⁻¹. Besides, the binding result with mouse IL-9 [4] was “no binding”.

By Kd is commonly meant the constant that tells how readily two partners part at equilibrium. Low values mean higher affinity, high ones lower affinity. As a reminder, the koff is a measure of how fast the partners let go of each other. Low readings indicate a long-lived complex, high ones a short-lived complex. As usually defined, the kon is the rate constant with which the complex forms. Higher therefore signals faster complex formation.
